Measurements from article PMC1569432, “The yfhQ gene of Escherichia coli encodes a tRNA:Cm32/Um32 methyltransferase” (BMC Molecular Biology, 2006).

Target: the molecule itself
Assay: SEC; gel filtration of purified YfhQ on Superdex 200 in buffer B (50 mM Tris-HCl pH 7.5, 150 mM NaCl, 10 mM MgCl2, 10% glycerol); self-association, dimer

B1: YfhQ protein of Escherichia coli, His-tagged (enzyme, UniProt P0AE01 1-246, looked up)
chain: MLQNIRIVLVETSHTGNMGSVARAMKTMGLTNLWLVNPLVKPDSQAIALAAGASDVIGNAHIVDTLDEALAGCSLVVGTSARSRTLPWPMLDPRECGLKSVAEAANTPVALVFGRERVGLTNEELQKCHYHVAIAANPEYSSLNLAMAVQVIAYEVRMAWLATQENGEQVEHEETPYPLVDDLERFYGHLEQTLLATGFIRENHPGQVMNKLRRLFTRARPESQELNILRGILASIEQQNKGNKAE
notes: YfhQ (TrmJ), SPOUT superfamily methyltransferase of Escherichia coli; yfhQ gene in the pCA24N vector; theoretical mass of the His-tagged monomer 29.168 kDa; also called TrMet(Xm32); TrmJ; source: E. coli BL21 (DE3), purified (Ni2+ Chelating Sepharose, Superdex 200 gel filtration)
- stoichiometry N: 2
